Data as given in the domain aggregation screens of Martell et al. (2025).

Assay: soluble fraction after stress (log2 fold change); higher = more stays soluble; pooled small domains, quantitative proteomics
Conditions: stress: 75 degC
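Note: 20 min heating vs room temperature control held 20 min.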

Going from “HMENEFEAYSDGSSIQLNDPSKATYVVFDRQGRLLHLFQNHSLSSLSIERKNQILIITRETADGVSVKKIV” to “HMENEIPVPELVGMSEADAAAKLASLGLERDTQREATADEESVGKVLRQEPTPGEYVDEGHKVTIWVGE”, the “soluble fraction (log2)” value rises from -0.53 to 0.184.

“HMENFSTLFSRLKEERGLSNKQISSFTGAPIKEVKKWESGMGIPTEKRIVAALEGILGSEISKAI” and “HMENHILIIDDDLMLLKTAEEILSDQYNVSVAKSGIQALNLLNKNIIPDLILLDIDMPQMDGYETL” are within 0.2 log units of each other in “soluble fraction (log2)” value: -0.125 for the first, -0.0633 for the second.

Going from “HMENIIFDIGFHKGEDTLFYLLKGYRVIAVDADPDLINEWQNIFKKYIENGKLLLLNYVISDT” to “HMENISVESKMKLLLKSLKTRDFISLPELVLKGESKLAISVILVAALELNRKGYIEVVQAEQFGEIYFKNT”, the “soluble fraction (log2)” value rises from -1.29 to -0.173.

Going from “HMENKVLVITEEEKGKRLDVYLAAALEVSRSYAQQLIQGEDVVVNDKQVKANYRLSEGDVVQVQLD” to “HMENLIEELTAKNKEYIHSVTKQLILVGKSDEEVKEILNDILPQIIEGQKSGIIARKLLGAPTEFVSQYQP”, the “soluble fraction (log2)” value falls from 1.01 to -0.269.

Going from “HMENLQLQQLVKGLPEKMQEIVILRFSQELTMREIADIVNLPMRTVQSQLRLALKILKKEMG” to “HMENLSFNINSEEEGQRIDKYLSVMIEGKSRSFVQGLIEEKKVKANSKVIKSNYKLKKGDFIEVEVPEPV”, the “soluble fraction (log2)” value rises from -0.682 to 0.289.

Going from “HMENLSGNDIKYLRKKYNLTQKELADALGLQKFGDRTIRRWEAEETHPSKLEQSSIQSFFNSLK” to “HMENLTLVIGNKLKNIRNSRNLSLDDVAELTGVSKAMLGQIERGKSNPTVSTLWKISTGLRVSFSSFIDE”, the “soluble fraction (log2)” value falls from -0.0716 to -3.44.

Going from “HMENLVPVVVATTNIEPRTQITDAMVKVEQIPALGRNESMLEDPALVVGGYATGKIYAGQSFIQPMVSK” to “HMENNIILNYVKDNLNITEKDAKDLIELLGSDYYHIKNETNKIAAFLDGQPYSFEKIKNLISIDKEY”, the “soluble fraction (log2)” value falls from 0.351 to 0.0409.

Going from “HMENPLETYYSQWVSAIKREHPEASFVKDTDGKYYVEGLTKNRLAVIYENPHLVRLVNATTNLHVE” to “HMENPVPVIITDQNFQPLLWKNVGVPTDTIFHELSPENQKKLENLMKTMVQMPLTDDGRISGYAYYSK”, the “soluble fraction (log2)” value rises from -0.567 to 0.0767.

Compared with “HMENQFNDWSLTPSEKEVALFMLKGLSTQEIAAARNTKEKTVRQQASAVYAKSQLDGRYALAAWFFEDI”, “HMENQMIIYIDENDENKRLDSYLSEITPDYSRSKIQNFIKNGNVTVNDSNKKPSYLLKENDKISFELPQQ” is higher in “soluble fraction (log2)” value: -0.702 for the first, -0.0893 for the second.

“HMENSLLSESLAKIYIKTHRYERAYEILSRLSLAVPEKNAYFADQLRFLRKVMLAESFRKQHS” and “HMENTSPMTPEQSKALMAYLTKRHGDSREAYLSELSQFFGRPLSSSRELTKADVSEFLNAIN” are within 0.2 log units of each other in “soluble fraction (log2)” value: 0.0207 for the first, 0.0561 for the second.

“HMENVVESIYNKMVESITNGQWAAGSKIPTENELAKTYQVSRSSVRQAISRLKALGLLESRQGSGTVIKK” and “HMENWMPNLVNQDKRLAINTLRELGFTEEAGNLVIREETSEDVTKDYVISTDPVAETDLADVEKVTLVVSS” are within 0.2 log units of each other in “soluble fraction (log2)” value: -0.0436 for the first, 0.116 for the second.

First: HMENYIEQLTAKNSEYIHVVTRELVKIGKSDEEIKAILSDILPQIVAAQDQRVLAKDILGTPSEFTAKYAP
Second: HMEPDDLTVIKGIGPVAAKDLNEQGIITFAQLAKLSDKDVAKIDEHMPFSADQIKDWREQAKELAK
The “soluble fraction (log2)” value of the first is lower: 0.462 for the first, 0.739 for the second.

“HMEPDEIVLDHRKRIENSDAIVLIAPIWNFRMPAILEGWIDKVLAPPWAFKFKKLFGNYGYPVGNLKG” and “HMEPDTVVVPNFVGKVYASEIEGNEAYSDFTFVIKEGNDPEQDIGVVLKQTPNEGLEVKKGKEITLTINQ” are within 0.2 log units of each other in “soluble fraction (log2)” value: 0.0917 for the first, 0.031 for the second.

Compared with “HMEPEAKIDFILKAAQKRLGLYGYEKTTMQEIAADINMSKAALYYYFPDKESLFKAVVENEQEEYFH”, “HMEPEDVIAMERYLASGAIKGIGVTLAGRIIKKFQKETFHIIEEEPERLSEVKGISEKLAREIYQQFTQK” is higher in “soluble fraction (log2)” value: -1.97 for the first, -1.11 for the second.

Compared with “HMEPERRHLEVPAEAEGERIDRFLASQLENLSRSRIQALIKAGYVRNRRGTIEDPGLRVKPGDAFVVDLPP”, “HMEPEVEITYFKPDERKAGGAYVTVTGAVIKVDDFERLITMQDGTKIPMDDILSIDGELFLS” is lower in “soluble fraction (log2)” value: 0.354 for the first, -0.502 for the second.

“HMEPGEVQVDGLRFIAQPQERNDFEVALEQFRAGNFAAARKSFAAFINTYKQSGYLPSARFW” and “HMEPLKLGDATGDGKINLQDVLEMQKHMAGILVLKGKFFTAADVNGNGKIELVDVLSVQKYLAGVTAEV” are within 0.2 log units of each other in “soluble fraction (log2)” value: 0.0135 for the first, 0.11 for the second.

Compared with “HMEPLVSKVFQVSYQKTADLVALIKSEDSKLLSARGTLISDERTSQIFVQDTPTRLERISMIVNGL”, “HMEPMNMYSSIKKVIGVVSGKGGVGKSLVTASLARMMRAKGYHVGIMDADITGPSIPKMYGLHEMA” is higher in “soluble fraction (log2)” value: -0.889 for the first, 0.395 for the second.

Going from “HMEPVDYEALRKELMQKVMGLFTQSRDVGIQILSSFGAKKLSDVPDDKLVAFAASVDKALAG” to “HMEPVQFIQFKIPDGHPWSGQLLREVRLPPGTLVVLLKHDGKNIIPNGETPLLAGDSVILSAASPT”, the “soluble fraction (log2)” value falls from -0.193 to -0.567.

Compared with “HMEQAAQPQTGFDPRRLKAGDAVHLLALDQRGVLLEDPKPGAESAPVSVGVAGVRVVVPLREMEALPAG”, “HMEQEVLDLLFDAIRSLPEKYRRLFDMSFEQGLKNAEIAALLHVSESAVKKQKASMIQQLRDDLLRKTGKD” is lower in “soluble fraction (log2)” value: 0.0201 for the first, -0.745 for the second.

Going from “HMEQFDFTILRELRKRAGLSIGEVSAESGVSAAVISKLERNRTRAELDTLYRLARVFGITAAELLNLAEA” to “HMEQIETIFLSAAPYARTHIIHLLETSELFRDKYLTIVETSNGLLIYTEDKNRLLGILNSLT”, the “soluble fraction (log2)” value falls from -2.19 to -2.51.

First: HMEQIFTELIMDGRVLGENLHRMGVDETWLLRQLRQQGYHSAREVFLAVADANKQVAVYPVS
Second: HMEQINVTIQTEKGRIDKVLSEHLPNHSRSQIQQWLKEKHVTVNGETVRANYKVTAGDEIVVTIPEPEV
The “soluble fraction (log2)” value of the first is lower: -0.381 for the first, 0.546 for the second.

Compared with “HMEQISDEDTLRKMVNEVLDNNQTQLEQYKSGKTNLIGFFVGQTLKKSAGKANPSIVNKLVNEEIYI”, “HMEQISIETRIEQLLARLSETEASGFEELFADTSSRADLITTFLALLEMIRLKLVRVFQDGSFGPIRIYKR” is lower in “soluble fraction (log2)” value: 0.141 for the first, -0.572 for the second.

“HMEQKISVPALVGRDIEEILADTEVTGNFTIKEADKRVASNRPVGEVLEQDPGTGESAVKGTIITVTVSAG” and “HMEQNTKAYEQVRTLTDLLNQYRHEYYNLSAPSVSDQEYDRLFDALAALEKQTGIVMSNSPTQTVG” are within 0.2 log units of each other in “soluble fraction (log2)” value: -0.0542 for the first, 0.0212 for the second.

“HMEQPAPSTTVDILGGGRAALVTANRELGLALADDEIDYLTDSFTQLGRNPVDVELMMFAQA” and “HMEQSLNTYSIRTVKESLFLAETKNLNKIEKLVEGIEGRLTLSEALVLFSDKLNAMSVLSHVNANT” are within 0.2 log units of each other in “soluble fraction (log2)” value: -0.00398 for the first, -0.154 for the second.

Compared with “HMEQTIKKYVNVATLNFRSGPSTSYSIISTLSKGTKVEVISTTNNWSKIIYDGKIGYVSSEYLSKSI”, “HMEQVPEAVGRRVRQARSDRGWTLDQLAERSEVSRRMIVNVEAGTSNASIATLLRLATALNVGLAELVA” is higher in “soluble fraction (log2)” value: -3.07 for the first, -1.61 for the second.

First: HMEQVVFNGTGRRKSSIARVRIMSGKGNITVNGKALDEYFGEETLKVIVRQPLTVTDTLDKYDVIATVK
Second: HMEQYYVFFAGGMTIGTKEWYESILPENIATSYDDILEGKMMPASLEQIEFYNSHKDYDLYHLFYML
The “soluble fraction (log2)” value of the first is higher: 0.0911 for the first, -4.25 for the second.

Compared with “HMERAFRILELFDLKQDELPITEIAERTGLPISTAHRLLSTLETLGYIAQNPDNGRYRLGLQTFVLGSR”, “HMERAPAYPDGLTQREVEVLRLIASGKTDREIAEELFIGVRTVSTHVGNILNKTNSANRTEAASYANQQGL” is higher in “soluble fraction (log2)” value: -1.86 for the first, -0.0632 for the second.

“HMEREQNIAQGREVVQRELKRLGLTDVFTVEDIGRALKFDDIDEFLSKVGFGDIQTAKITGAIALMQQALR” and “HMEREQNIEHGRAIVERELKRLGLSDVYTIADIATALRHDDVDQFLAKIGFGDIQSTQIGGAIAALQQR” are within 0.2 log units of each other in “soluble fraction (log2)” value: -0.0649 for the first, 0.0025 for the second.

Going from “HMEREQPFAVTEAYRGMRLDRFLQAMLPRMSRAAIQDAIDNRVRLGSGRAAKASLRPAIGDTVFFGQRI” to “HMERFRQVNAGMTRDDIYQLLGKPTEKTPFPLKNEEVWSWRHQADGQTVALFNIHLDPDGRVTTTSQSMDL”, the “soluble fraction (log2)” value rises from -1.17 to 0.739.

Going from “HMERFVVISKDKYANLREEASTNSKVLAKVDNSYLIYNTNTYNENKDWYSVQIERDGNYYQVGYIHKSQL” to “HMERLKRVTLSLNQSNYSVTEIARRLQAITGIKDITVVEDEQAVYLKVDPATFDLTLAQQAV”, the “soluble fraction (log2)” value rises from -1.61 to -0.474.

First: HMERLLVSKINGMITEAKVSVEDVVKVVASRGHYPEVKSIDEYPDDFLSRWVVPNFKKIVEMINANKEA
Second: HMERMTSTEILTRDFLTTNSKIVKKSTIEELSEIIHVSPATIIRTVKKMGYSGFSEYKNELINQ
The “soluble fraction (log2)” value of the first is higher: -0.979 for the first, -1.73 for the second.

Compared with “HMERPEVVAYRLAYASAESLRPALGLVASPSDLEIDERTNTLIVRAVPSVQERVAELVASLDI”, “HMERPKSLRELALEHLRNSIIDGSLKMGQVLSERKISEELGVSKSPVREALAQLRDEGLVSIEPQKGARV” is higher in “soluble fraction (log2)” value: -0.492 for the first, 0.14 for the second.

“HMERPLFVIEDYRRFAGNEVEISLKKGGKKIRGVIAGTPSDAEVTVRTQGGETTVPLGDVKRAHLVYV” and “HMERRDEINSVVSRYVSAITEGKYDLAEVDETGKLRVQTEGREVLPEALSRGTLEQFYFAFRMAVGSI” are within 0.2 log units of each other in “soluble fraction (log2)” value: -0.00192 for the first, 0.04 for the second.

Compared with “HMERTQSIEAAREQLGEVTKDNVFETETLGALAILKENEPGEYAKIKADLKGKINMNDLERAVKKAAADQR”, “HMERYFVLVIYDIVDNKKRLKLSKYLLGYGIRVQKSAFEMMITKEKYNKLIKELPTYIEEGEDSIRLY” is lower in “soluble fraction (log2)” value: 1.02 for the first, 0.0566 for the second.

“HMERYLLRDNIPNALHGERLDRVIAIMTGLSRSAVSALIKSNQVLRNGQIAQSISEKVVEGDELEVHLEP” and “HMESDAIAAAIAALPARYREVLLLRYDNGFSYSEISKALDMTEAAVRKTVQRAKEALQRTLQIQEEDT” are within 0.2 log units of each other in “soluble fraction (log2)” value: -0.832 for the first, -0.767 for the second.

First: HMESDRVAHVVAPGETLFSISGKYGIGMGELVAANPVLESRPPRTGDTLLIRLPENPLPAETDAETLS
Second: HMESIAEIDRMNAKIFMDEFQDSLSIMQKTTNPETFFSRYDLAMERLDNMVELQQKGIKFTSDLSSLKAQ
The “soluble fraction (log2)” value of the first is higher: 0.643 for the first, 0.0865 for the second.

Going from “HMESIEGMYKISLLRKQGNAYVIFEDENKEAVEHIFPEKPTALELGTKVIEMFEYKERYDGLI” to “HMESILDDFPGLGEKRKKALLEHFGSISKIKAATVGQLREVDGIGFETAAALREFLDANFPA”, the “soluble fraction (log2)” value rises from -0.343 to 0.188.

Compared with “HMESIPDELLEAFKQDPAFKQAFYALTAGRQRGYIIHFSQPKQSQTRIGRIEKYKEQIFNGIGLN”, “HMESKPLTPSEIKKLRMDANMTQAGLAEVLGMTVKAVEAWESGRNIPSGAADKILRVMQKHPSVIGMMQS” is higher in “soluble fraction (log2)” value: -1.39 for the first, 0.0281 for the second.
